Data from the nanobody polyreactivity screen of Harvey et al. (2022).

Assay: yeast display, Sf9 membrane polyspecificity reagent, FACS + sequencing; frameworks hold sequencing errors
Outline: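 Nanobodies from a synthetic yeast display library (Saccharomyces cerevisiae BJ5465), induced 36–48 hours with galactose, were stained 1 hour at 4 °C with 10% biotinylated, detergent-solubilized Sf9 membrane reagent, enriched on streptavidin microbeads, then FACS-sorted. Anti-HA (expression) and streptavidin (reagent binding) fluorescence set low and high (top ~1%) gates. Polyreactivity labels come from the gate of origin. Genes were colony-PCR amplified, MiSeq 2 × 250 sequenced and filtered by CDR length.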

Which “polyreactivity (PSR sort gate)” value does the source give for “QVQLVESGGGLVQAGGSLRLSCAASGRTFRPYAMGWYRQAPGKERELVAAITSGVSTYYADSVKGRFTISRDNAKNTVYLQMNSLKPEDTAVYYCNKVISREVGIRMDYWGQGTQVTVSS” here?
Its value is “high polyreactivity”.

Which “polyreactivity (PSR sort gate)” value does the source give for “QVQLVESGGGLVQAGGSLRLSCAASGRTFRQYAMGWYRQAPGKERELVATISSGGSTYYADSVKGRFTISRDNAKNTVYLLMNSLKPEDTAVYYCAAPYWARKYWRKFGPFDYWGQGTQVTVSS” here?
The value was “low polyreactivity”.

For “QVQLVESGGGLVQAGGSLRLSCAASGRTFRQYAMGWYRQSPGKERELVATISGGGGNTYYADSVKGSFTISRDNAKNTVYLQMNSLKQEDTAVYYCAARRRDRPVRGYDYWGQGTQVTVSS”, which “polyreactivity (PSR sort gate)” value is on record?
The value was “high polyreactivity”.

Which “polyreactivity (PSR sort gate)” value does the source give for “QVQLVESGGGLVQAGGSLRLSCAASGRTFRRNAMGWYRQAPGKERELVAAINTGGGTYYADSVKGRFTISRDHAKNTVYLQMNSLKPEDTAVYYCNAGTRYGSFSYVKYDWGQGTQVTVSS” here?
Its value is “high polyreactivity”.

Which “polyreactivity (PSR sort gate)” value does the source give for “QVQLVESGGGLVQAGGSLRLSCAASGRTFRRNAMGWYRQAPGKERELVAAIRWSSGSTYYADSVNGRFTISRDNAKNTVYLQMNSLKPEDTAVYYCAADGDWYGYIWQSDDGYDSWGQGTQVTVSS” here?
Its value is “low polyreactivity”.

For “QVQLVESGGGLVQAGGSLRLSCAASGRTFRRNAMGWYRQAPGKERELVAPISRGGSTNYADSVKGRFSISRDNAKNTVYLQMNSMKPEDTAVFYCAARYYYRYNYWGQGTQVTVSS”, which “polyreactivity (PSR sort gate)” value is on record?
The value was “high polyreactivity”.

Which “polyreactivity (PSR sort gate)” value does the source give for “QVQLVESGGGLVQAGGSLRLSCAASGRTFRRNAMGWYRQAPGKERELVASINRGGGTNYADSVKGRFTISRDNAKHTVYLQMNSLKPEDTAVYYCAAGPGTYWGYDYWGQGTQVTVSS” here?
The value was “low polyreactivity”.

With “QVQLVESGGGLVQAGGSLRLSCAASGRTFRRNAMGWYRQAPGKERELVATITGGGRTNYADSVKGRFTISRDNAKNTVYLQMNSLKPEDTAVYYCAAAAGSYNTGYGYWGQGTQVTVSS” as the sequence, how does the “polyreactivity (PSR sort gate)” value read?
The value was “high polyreactivity”.

Which “polyreactivity (PSR sort gate)” value does the source give for “QVQLVESGGGLVQAGGSLRLSCAASGRTFRRNAMGWYRQAPGKEWELVADISNGDSTKYADSVKGRFTISRDNAKNTVYLQMNSLKPEDTAVYYCNAQRYRVVVYNSHGWQTRNYWGQGTQVTVSS” here?
Its value is “low polyreactivity”.

Which “polyreactivity (PSR sort gate)” value does the source give for “QVQLVESGGGLVQAGGSLRLSCAASGRTFRRNTMGWYRQAPGQEWELVAAISSSGSSTYYADSVKGRFTISRDNAKNTVYLQMKSLKPEDTAVYYCAATGYPRFGYWGQGTQVTVSS” here?
Its value is “high polyreactivity”.

Which “polyreactivity (PSR sort gate)” value does the source give for “QVQLVESGGGLVQAGGSLRLSCAASGRTFRRYAMGWYRQAPGKERELVAAIRSDGSTYYADSVKGRFTISRDNAKNTVYLQMNSLKPEDTAVYYCAKVLDQRRRYDYWGQGTQVTVSS” here?
Its value is “low polyreactivity”.

For “QVQLVESGGGLVQAGGSLRLSCAASGRTFRRYAMGWYRQAPGKERELVAAISRSGGSTSYADSVKGRFTISRDNAKNTVYLQMKSLKPEDTAVYYCAVEVASYDRRPSEYYWGQGTQVTVSS”, which “polyreactivity (PSR sort gate)” value is on record?
The value was “high polyreactivity”.

For “QVQLVESGGGLVQAGGSLRLSCAASGRTFRRYTMGWYRQAPGKESELVATISSGGSTYADSVKGRFTISLDNAKNTVYLQMNSLKPEDTAVYYCAARYDVAWYSKRYSWGQGTQVTVSS”, which “polyreactivity (PSR sort gate)” value is on record?
Its value is “high polyreactivity”.

For “QVQLVESGGGLVQAGGSLRLSCAASGRTFRSYAMGWYRQAPGKERELVAAITRTGSTYYADSVKGRFTISRDNAKNTVYLQMNSLKPEDTAVYYCAARFVYGYDYWGQGTEVTVSS”, which “polyreactivity (PSR sort gate)” value is on record?
Its value is “high polyreactivity”.

Which “polyreactivity (PSR sort gate)” value does the source give for “QVQLVESGGGLVQAGGSLRLSCAASGRTFRSYAMGWYRQAPGKERELVAGITTSGGSTYYADSVKGRFTISRDNAKNTVYLQMNSLKPEDTAVYYCNARSWYSFHPHDYWGQGTQVTVSS” here?
Its value is “high polyreactivity”.

For “QVQLVESGGGLVQAGGSLRLSCAASGRTFRSYTRGWYRQAAGKERELVAAINRGDRTYADSVKGRFTISRDNAKNTVYLQMNSLKPEDTAVYYCAARYYGGYGKQPRARYGYWGQGTQVTVSS”, which “polyreactivity (PSR sort gate)” value is on record?
Its value is “high polyreactivity”.

For “QVQLVESGGGLVQAGGSLRLSCAASGRTFRTYAMGWYRQAPGKERELVAAITTSGSSTYYADSVNGRFTISRDNAKKTVYLQMNILKPEDTAVYYCAAARAAIVPGYYSWGQGSQVTVSS”, which “polyreactivity (PSR sort gate)” value is on record?
The value was “low polyreactivity”.

For “QVQLVESGGGLVQAGGSLRLSCAASGRTFRTYTMGWYRQAPGKERELVAAISIGGRTNYADSVKGRFTISRDNAKNTVFLQMNSLKPEDTAVYYCIAARWVPRSYGYWGLGTQVTVSS”, which “polyreactivity (PSR sort gate)” value is on record?
Its value is “high polyreactivity”.

Which “polyreactivity (PSR sort gate)” value does the source give for “QVQLVESGGGLVQAGGSLRLSCAASGRTFRTYVMGWYRQAPGKEREFVAGITWSSGSTRYADSVKGRFTISRDNAKNTVYLQMNSLKPEDTAVYYCAAKRWPGTDGYWGQGTQVTVSS” here?
The value was “high polyreactivity”.

With “QVQLVESGGGLVQAGGSLRLSCAASGRTFRTYVMGWYRQAPGKERELVAAITGSGGSTYYADSVKGRFTISRDNAKNTVYLQMNSLKPEDTAVYYCAADYRWDYYWYDYAEYDYWGQGTQVTVSS” as the sequence, how does the “polyreactivity (PSR sort gate)” value read?
Its value is “low polyreactivity”.

With “QVQLVESGGGLVQAGGSLRLSCAASGRTFRTYVMGWYRRAPGKEREFVAGITWSSGSTRYADSVKGRFTISRDNAKNTVYLQMNSLKPEDTAVYYCAAKRWPGTDGYWGQGTQVTVSS” as the sequence, how does the “polyreactivity (PSR sort gate)” value read?
The value was “high polyreactivity”.

For “QVQLVESGGGLVQAGGSLRLSCAASGRTFRVYAIGWYRQAPGKERELVAAISGSGGSTYYADSVKGRFTISRDNAKNTVYLQMISLKPEDTAVYYCAKGSYRSYWYRAYDYWGQGTQVTVSS”, which “polyreactivity (PSR sort gate)” value is on record?
The value was “low polyreactivity”.

For “QVQLVESGGGLVQAGGSLRLSCAASGRTFRVYAMGWYRPAPGKERELVATITSSGGSTYYADSVKGRFTISRDNAKNTVYLQMNSLKPEDTAVYYCNVSVYYNYDSSYYYWGQGTQVTVSS”, which “polyreactivity (PSR sort gate)” value is on record?
Its value is “low polyreactivity”.

Which “polyreactivity (PSR sort gate)” value does the source give for “QVQLVESGGGLVQAGGSLRLSCAASGRTFRVYAMGWYRPAPGKERELVATITSSGGSTYYADSVKGRFTISRDNAKNTVYLQMNSLKPEDTGVYYCNVSVYYNYDSSYYYWGQGTQVTVSS” here?
The value was “low polyreactivity”.

With “QVQLVESGGGLVQAGGSLRLSCAASGRTFRVYAMGWYRQAPGKEREFVAAISYSGGRTYYADSVKGRFTISRDNAKNTVYLQMKSLKPEDTAVYYCAKRVPYGRGVTGYYWGQGTQVTVSS” as the sequence, how does the “polyreactivity (PSR sort gate)” value read?
Its value is “high polyreactivity”.

Which “polyreactivity (PSR sort gate)” value does the source give for “QVQLVESGGGLVQAGGSLRLSCAASGRTFRVYAMGWYRQAPGKERELVAAINGRGGSTYYADSVKGRFTISRDNAKNTVYFQLNSLKPEDTAVYYCNALARTSWRMDYWGQGTQVTVSS” here?
The value was “high polyreactivity”.

Which “polyreactivity (PSR sort gate)” value does the source give for “QVQLVESGGGLVQAGGSLRLSCAASGRTFRVYAMGWYRQAPGKERELVASITNDGSTYADSVKGRFTISRDNAKNTVYLQMNSLKPEDTAVYFCAARFPQWRYSRRTGERFDYWGQGTQVTVSS” here?
The value was “low polyreactivity”.

Which “polyreactivity (PSR sort gate)” value does the source give for “QVQLVESGGGLVQAGGSLRLSCAASGRTFRVYAMGWYRQAPWKERELVAAISGRGGRTYYADSVKGRFTISRDNAKNTVYLQMNSLKPEDTAVYYCTADVGVYHDDYWGQGTQVTVSS” here?
Its value is “high polyreactivity”.

With “QVQLVESGGGLVQAGGSLRLSCAASGRTFRVYTMGWYRQAPGKERELVAAISSRGGSTYYADSVKGRFTISRDNAKNTVYLQMYSLKPEDTAVYYCAASKFRSGGYDYWGQGTQVTVSS” as the sequence, how does the “polyreactivity (PSR sort gate)” value read?
The value was “high polyreactivity”.

With “QVQLVESGGGLVQAGGSLRLSCAASGRTFRWYAMGRYRQAPGKERELVAVISRGGGSTTYADSVKGRFTISRDNAKNTVYLQMNSLKPEDTAVYYCAAQWSGSVGSRPMYYWGQGSQVTVSS” as the sequence, how does the “polyreactivity (PSR sort gate)” value read?
The value was “high polyreactivity”.

With “QVQLVESGGGLVQAGGSLRLSCAASGRTFRWYTMGWYRQAPGKEREFVAAITWSGSSTNYADSVKGRFTISRDNEKNTVYLQMNSLKPEDTAFYYCAAENRRRRDDYWGQGTQVTVSS” as the sequence, how does the “polyreactivity (PSR sort gate)” value read?
Its value is “high polyreactivity”.

Which “polyreactivity (PSR sort gate)” value does the source give for “QVQLVESGGGLVQAGGSLRLSCAASGRTFRYNALGWYRPAPGKERELVASITSGGSTNYADSVKGRFTMSRDNAKNTVYLQMNSLKPEDTAVYYCASDERRPYWQHSIGSGRPFDYWGQGTQVTVSS” here?
The value was “low polyreactivity”.
